For this data set, the system named is Escherichia coli TOP10. Briefly: shrunken log2 fold change of peptide-encoding DNA abundance (4.5 h post-induction vs induction); higher = less antimicrobial activity (less host growth inhibition). Particulars: time post-induction: 4.5 h; library: site-saturation at positions 5, 18, 19, 20.
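Also: peptides expressed intracellularly from a pBAD plasmid library in pooled LB shake-flask culture, induced with 0.3% L-arabinose, DNA abundance read by NGS, three biological replicates, DESeq2 with apeglm shrinkage.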

For the sequence RRIRPRPPRLPRPRPRPRMYPRP, the “shrunken log2 fold change” value was -0.128.

As for RRIRNRPPRLPRPRPRPECTPRP, the “shrunken log2 fold change” value came to 0.00282.

With RRIRCRPPRLPRPRPRPGNRPRP, the “shrunken log2 fold change” value amounted to 0.0246.

RRIRPRPPRLPRPRPRPGGNPRP: the “shrunken log2 fold change” value is -0.0884.

In the case of RRIRERPPRLPRPRPRPMTKPRP, the “shrunken log2 fold change” value was -0.0224.

In the case of RRIRGRPPRLPRPRPRPMLPPRP, the “shrunken log2 fold change” value was found to be 0.242.

Regarding RRIRGRPPRLPRPRPRPDDTPRP, the “shrunken log2 fold change” value is 0.944.

Regarding RRIRIRPPRLPRPRPRPFILPRP, the “shrunken log2 fold change” value is -0.275.

For RRIRKRPPRLPRPRPRPYGSPRP, the “shrunken log2 fold change” value is -0.224.

With RRIRTRPPRLPRPRPRPKLSPRP, the “shrunken log2 fold change” value amounted to 0.197.

On to RRIRCRPPRLPRPRPRPAMMPRP, for which the “shrunken log2 fold change” value is -0.0414.

As to RRIRRRPPRLPRPRPRPVPSPRP, the “shrunken log2 fold change” value amounted to 0.488.

RRIRFRPPRLPRPRPRPYKMPRP: the “shrunken log2 fold change” value was -0.62.

Turning to RRIRRRPPRLPRPRPRPPYYPRP, the “shrunken log2 fold change” value came to 0.108.

Take RRIRMRPPRLPRPRPRPNALPRP: the “shrunken log2 fold change” value amounted to 0.313.

As to RRIRHRPPRLPRPRPRPRCKPRP, the “shrunken log2 fold change” value was -0.053.

With RRIRARPPRLPRPRPRPMPSPRP, the “shrunken log2 fold change” value was found to be 0.341.

Take RRIRKRPPRLPRPRPRPPPKPRP: the “shrunken log2 fold change” value was 1.2.

As to RRIRNRPPRLPRPRPRPIKSPRP, the “shrunken log2 fold change” value was -0.245.

On to RRIRIRPPRLPRPRPRPSVDPRP, for which the “shrunken log2 fold change” value was -0.326.

On to RRIRQRPPRLPRPRPRPQWNPRP, for which the “shrunken log2 fold change” value is -0.206.

With RRIRWRPPRLPRPRPRPNSDPRP, the “shrunken log2 fold change” value is -0.258.

As to RRIRARPPRLPRPRPRPNKVPRP, the “shrunken log2 fold change” value was -0.108.

RRIRIRPPRLPRPRPRPTVKPRP: the “shrunken log2 fold change” value was -0.468.

As for RRIRFRPPRLPRPRPRPQLHPRP, the “shrunken log2 fold change” value was 0.381.

Consider RRIRARPPRLPRPRPRPMSRPRP, for which the “shrunken log2 fold change” value is -0.171.

For RRIRIRPPRLPRPRPRPYEPPRP, the “shrunken log2 fold change” value is -0.21.

With RRIRHRPPRLPRPRPRPPHRPRP, the “shrunken log2 fold change” value was 0.198.

RRIRNRPPRLPRPRPRPEWFPRP: the “shrunken log2 fold change” value is -0.00884.

As for RRIRTRPPRLPRPRPRPHDVPRP, the “shrunken log2 fold change” value was 0.00489.

Take RRIRARPPRLPRPRPRPKPCPRP: the “shrunken log2 fold change” value amounted to 0.162.

Turning to RRIRLRPPRLPRPRPRPCMKPRP, the “shrunken log2 fold change” value is -0.101.

On to RRIRARPPRLPRPRPRPRKIPRP, for which the “shrunken log2 fold change” value was found to be 0.429.

With RRIRFRPPRLPRPRPRPPTEPRP, the “shrunken log2 fold change” value came out at 0.438.

In the case of RRIRMRPPRLPRPRPRPNCNPRP, the “shrunken log2 fold change” value was determined as 0.675.

For RRIRPRPPRLPRPRPRPMRNPRP, the “shrunken log2 fold change” value is 0.905.

As for RRIRHRPPRLPRPRPRPNILPRP, the “shrunken log2 fold change” value is -0.448.

As for RRIRFRPPRLPRPRPRPEEDPRP, the “shrunken log2 fold change” value was -0.185.

In the case of RRIRQRPPRLPRPRPRPARDPRP, the “shrunken log2 fold change” value turned out to be 0.0373.

In the case of RRIRCRPPRLPRPRPRPMKEPRP, the “shrunken log2 fold change” value was -0.18.

For the sequence RRIRHRPPRLPRPRPRPTSGPRP, the “shrunken log2 fold change” value was -0.0493.

For the sequence RRIRVRPPRLPRPRPRPGDHPRP, the “shrunken log2 fold change” value is -0.0257.

Consider RRIRGRPPRLPRPRPRPQHWPRP, for which the “shrunken log2 fold change” value is 0.165.

Consider RRIRWRPPRLPRPRPRPVEHPRP, for which the “shrunken log2 fold change” value is -0.287.

RRIRMRPPRLPRPRPRPVHWPRP: the “shrunken log2 fold change” value is 0.155.

As to RRIRFRPPRLPRPRPRPYGKPRP, the “shrunken log2 fold change” value is -0.514.

With RRIRFRPPRLPRPRPRPMAQPRP, the “shrunken log2 fold change” value is -0.337.

Consider RRIRPRPPRLPRPRPRPGMYPRP, for which the “shrunken log2 fold change” value is -0.0544.

On to RRIRERPPRLPRPRPRPRAKPRP, for which the “shrunken log2 fold change” value came out at 0.192.

As to RRIRDRPPRLPRPRPRPDETPRP, the “shrunken log2 fold change” value turned out to be 0.0461.

Turning to RRIRYRPPRLPRPRPRPNMEPRP, the “shrunken log2 fold change” value was -0.618.

For RRIRFRPPRLPRPRPRPCPGPRP, the “shrunken log2 fold change” value was -0.151.

With RRIRWRPPRLPRPRPRPMFDPRP, the “shrunken log2 fold change” value was found to be 0.139.

For the sequence RRIRERPPRLPRPRPRPIWKPRP, the “shrunken log2 fold change” value is -0.644.

As for RRIRGRPPRLPRPRPRPDCMPRP, the “shrunken log2 fold change” value is 0.909.

On to RRIRGRPPRLPRPRPRPRYHPRP, for which the “shrunken log2 fold change” value is -0.0711.

Consider RRIRDRPPRLPRPRPRPALGPRP, for which the “shrunken log2 fold change” value was found to be 0.933.

In the case of RRIRGRPPRLPRPRPRPWATPRP, the “shrunken log2 fold change” value is 0.959.

With RRIRERPPRLPRPRPRPLVMPRP, the “shrunken log2 fold change” value is -0.0346.

For the sequence RRIRQRPPRLPRPRPRPYTIPRP, the “shrunken log2 fold change” value was -0.0485.

Regarding RRIRQRPPRLPRPRPRPGECPRP, the “shrunken log2 fold change” value is -0.0823.

With RRIRERPPRLPRPRPRPILEPRP, the “shrunken log2 fold change” value was -0.0533.

As to RRIRWRPPRLPRPRPRPREDPRP, the “shrunken log2 fold change” value amounted to 0.532.

With RRIRGRPPRLPRPRPRPFYRPRP, the “shrunken log2 fold change” value was -0.26.

As for RRIRWRPPRLPRPRPRPFQWPRP, the “shrunken log2 fold change” value came out at 0.236.

As for RRIRARPPRLPRPRPRPCAQPRP, the “shrunken log2 fold change” value amounted to 0.483.

On to RRIRHRPPRLPRPRPRPIYDPRP, for which the “shrunken log2 fold change” value is -0.436.

For RRIRARPPRLPRPRPRPSEDPRP, the “shrunken log2 fold change” value was found to be 0.396.

On to RRIRVRPPRLPRPRPRPETTPRP, for which the “shrunken log2 fold change” value stood at 0.348.

With RRIRNRPPRLPRPRPRPHHYPRP, the “shrunken log2 fold change” value is -0.619.

With RRIRERPPRLPRPRPRPTVWPRP, the “shrunken log2 fold change” value was found to be 0.217.

Take RRIRDRPPRLPRPRPRPVFWPRP: the “shrunken log2 fold change” value came out at 0.639.

Consider RRIRTRPPRLPRPRPRPGIDPRP, for which the “shrunken log2 fold change” value was -0.0352.

Turning to RRIRYRPPRLPRPRPRPDDFPRP, the “shrunken log2 fold change” value is -0.0153.

RRIRWRPPRLPRPRPRPHSFPRP: the “shrunken log2 fold change” value was -0.266.

For the sequence RRIRMRPPRLPRPRPRPEYRPRP, the “shrunken log2 fold change” value was -0.000921.

Consider RRIRMRPPRLPRPRPRPMVSPRP, for which the “shrunken log2 fold change” value came out at 0.0423.

As to RRIRSRPPRLPRPRPRPNHKPRP, the “shrunken log2 fold change” value is -0.738.

In the case of RRIRSRPPRLPRPRPRPINCPRP, the “shrunken log2 fold change” value was -0.159.

Regarding RRIRMRPPRLPRPRPRPHQLPRP, the “shrunken log2 fold change” value was -0.0373.

On to RRIRKRPPRLPRPRPRPTGAPRP, for which the “shrunken log2 fold change” value amounted to 1.09.

As to RRIRLRPPRLPRPRPRPPWDPRP, the “shrunken log2 fold change” value was 0.344.

For the sequence RRIRDRPPRLPRPRPRPHICPRP, the “shrunken log2 fold change” value was -0.205.

Consider RRIRYRPPRLPRPRPRPFFSPRP, for which the “shrunken log2 fold change” value was -0.77.

For the sequence RRIRCRPPRLPRPRPRPFRFPRP, the “shrunken log2 fold change” value is -0.83.

As to RRIRHRPPRLPRPRPRPKCNPRP, the “shrunken log2 fold change” value was -0.00178.

Take RRIRCRPPRLPRPRPRPMEDPRP: the “shrunken log2 fold change” value is -0.0146.

As to RRIRKRPPRLPRPRPRPWMQPRP, the “shrunken log2 fold change” value is -0.0134.

For RRIRQRPPRLPRPRPRPRVWPRP, the “shrunken log2 fold change” value was determined as 0.163.

With RRIRRRPPRLPRPRPRPIQEPRP, the “shrunken log2 fold change” value is 0.0641.

For RRIRVRPPRLPRPRPRPDNEPRP, the “shrunken log2 fold change” value was -0.185.

(Values after the supplement of paper PMC9112550, “Optimization of the antimicrobial peptide Bac7 by deep mutational scanning” (BMC Biology, 2022).)
